Results reported in publication doi:10.1101/2022.03.21.485092.

Biological target: hnRNP A1 spin-labelled at 231 (Homo sapiens, UniProt P09651-2 1-320, M1G;C43S;C175A;S231C)
Test: CW EPR

CCAGCAUUAUGAAAAUGA (ssRNA) [RNAga (3' AG motif mutated)]
binding result: binds
